Laboratory results taken from patent US20230407373A1 (priority 2020, published 2023).
Like-named read-outs stand apart in the source and are kept apart here.

System: HCoV-OC43 gRNA and sgRNA
Type: binding
Conditions: for target (unweighted spectral count, OC43 Probe II capture): FDR<10%; for target (unweighted spectral count, OC43 Probe II): OC43 Probe II capture on infected cells; for background (unweighted spectral count, no-probe control): no-probe control on infected cells
[1] = 36 hpi, type n_36_v, tested against no-probe control

Molecule | target (unweighted spectral count, OC43 Probe II capture) [1] | target (unweighted spectral count, OC43 Probe II) (type n_48_v, 48 hpi) | background (unweighted spectral count, no-probe control) (type n_48_v, 48 hpi) | other results
C8orf33 (protein, UniProt Q9H7E9 2-229, looked up) UPF0488 protein C8orf33: AALGHLAGEAAAAPGPGTPCASRGARLPGPVSSARNPSTVCLCPEQPTCSNADSRAHPLGDEGGTASKKQKNKKKTRNRASVANGGEKASEKLAPEEVPLSAEAQAQQLAQELAWCVEQLELGLKRQKPTPKQKEQAIGAIRTLRSKRTPLPRKRQLMHSLFGDYRAQMEAEWREALRALRAAAYSAQVQPVDGATRKKSQRVCRPRSIWRAKATLDMPDEEFRFNFF | 4 | – | – | –
VIL1 (protein, UniProt P09327 2-827, looked up) Villin-1: TKLSAQVKGSLNITTPGLQIWRIEAMQMVPVPSSTFGSFFDGDCYIILAIHKTASSLSYDIHYWIGQDSSLDEQGAAAIYTTQMDDFLKGRAVQHREVQGNESEAFRGYFKQGLVIRKGGVASGMKHVETNSYDVQRLLHVKGKRNVVAGEVEMSWKSFNRGDVFLLDLGKLIIQWNGPESTRMERLRGMTLAKEIRDQERGGRTYVGVVDGENELASPKLMEVMNHVLGKRRELKAAVPDTVVEPALKAALKLYHVSDSEGNLVVREVATRPLTQDLLSHEDCYILDQGGLKIYVWKGKKANEQEKKGAMSHALNFIKAKQYPPSTQVEVQNDGAESAVFQQLFQKWTASNRTSGLGKTHTVGSVAKVEQVKFDATSMHVKPQVAAQQKMVDDGSGEVQVWRIENLELVPVDSKWLGHFYGGDCYLLLYTYLIGEKQHYLLYVWQGSQASQDEITASAYQAVILDQKYNGEPVQIRVPMGKEPPHLMSIFKGRMVVYQGGTSRTNNLETGPSTRLFQVQGTGANNTKAFEVPARANFLNSNDVFVLKTQSCCYLWCGKGCSGDEREMAKMVADTISRTEKQVVVEGQEPANFWMALGGKAPYANTKRLQEENLVITPRLFECSNKTGRFLATEIPDFNQDDLEEDDVFLLDVWDQVFFWIGKHANEEEKKAAATTAQEYLKTHPSGRDPETPIIVVKQGHEPPTFTGWFLAWDPFKWSNTKSYEDLKAELGNSRDWSQITAEVTSPKVDVFNANSNLSSGPLPIFPLEQLVNKPVEELPEGVDPSRKEEHLSIEDFTQAFGMTPAAFSALPRWKQQNLKKEKGLF | – | 5 | 1 | –
EEF1A2 (protein, UniProt Q05639 2-463, looked up) Elongation factor 1-alpha 2: GKEKTHINIVVIGHVDSGKSTTTGHLIYKCGGIDKRTIEKFEKEAAEMGKGSFKYAWVLDKLKAERERGITIDISLWKFETTKYYITIIDAPGHRDFIKNMITGTSQADCAVLIVAAGVGEFEAGISKNGQTREHALLAYTLGVKQLIVGVNKMDSTEPAYSEKRYDEIVKEVSAYIKKIGYNPATVPFVPISGWHGDNMLEPSPNMPWFKGWKVERKEGNASGVSLLEALDTILPPTRPTDKPLRLPLQDVYKIGGIGTVPVGRVETGILRPGMVVTFAPVNITTEVKSVEMHHEALSEALPGDNVGFNVKNVSVKDIRRGNVCGDSKSDPPQEAAQFTSQVIILNHPGQISAGYSPVIDCHTAHIACKFAELKEKIDRRSGKKLEDNPKSLKSGDAAIVEMVPGKPMCVESFSQYPPLGRFAVRDMRQTVAVGVIKNVEKKSGGAGKVTKSAQKAQKAGK | – | 5 | 1 | –
DHX15 (protein, UniProt O43143 1-795, looked up) ATP-dependent RNA helicase …: MSKRHRLDLGEDYPSGKKRAGTDGKDRDRDRDREDRSKDRDRERDRGDREREREKEKEKELRASTNAMLISAGLPPLKASHSAHSTHSAHSTHSTHSAHSTHAGHAGHTSLPQCINPFTNLPHTPRYYDILKKRLQLPVWEYKDRFTDILVRHQSFVLVGETGSGKTTQIPQWCVEYMRSLPGPKRGVACTQPRRVAAMSVAQRVADEMDVMLGQEVGYSIRFEDCSSAKTILKYMTDGMLLREAMNDPLLERYGVIILDEAHERTLATDILMGVLKEVVRQRSDLKVIVMSATLDAGKFQIYFDNCPLLTIPGRTHPVEIFYTPEPERDYLEAAIRTVIQIHMCEEEEGDLLLFLTGQEEIDEACKRIKREVDDLGPEVGDIKIIPLYSTLPPQQQQRIFEPPPPKKQNGAIGRKVVVSTNIAETSLTIDGVVFVIDPGFAKQKVYNPRIRVESLLVTAISKASAQQRAGRAGRTRPGKCFRLYTEKAYKTEMQDNTYPEILRSNLGSVVLQLKKLGIDDLVHFDFMDPPAPETLMRALELLNYLAALNDDGDLTELGSMMAEFPLDPQLAKMVIASCDYNCSNEVLSITAMLSVPQCFVRPTEAKKAADEAKMRFAHIDGDHLTLLNVYHAFKQNHESVQWCYDNFINYRSLMSADNVRQQLSRIMDRFNLPRRSTDFTSRDYYINIRKALVTGYFMQVAHLERTGHYLTVKDNQVVQLHPSTVLDHKPEWVLYNEFVLTTKNYIRTCTDIKPEWLVKIAPQYYDMSNFPQCEAKRQLDRIIAKLQSKEYSQY | – | 13 | 3 | –
NOP58 (protein, UniProt Q9Y2X3 1-529, looked up) Nucleolar protein 58: MLVLFETSVGYAIFKVLNEKKLQEVDSLWKEFETPEKANKIVKLKHFEKFQDTAEALAAFTALMEGKINKQLKKVLKKIVKEAHEPLAVADAKLGGVIKEKLNLSCIHSPVVNELMRGIRSQMDGLIPGVEPREMAAMCLGLAHSLSRYRLKFSADKVDTMIVQAISLLDDLDKELNNYIMRCREWYGWHFPELGKIISDNLTYCKCLQKVGDRKNYASAKLSELLPEEVEAEVKAAAEISMGTEVSEEDICNILHLCTQVIEISEYRTQLYEYLQNRMMAIAPNVTVMVGELVGARLIAHAGSLLNLAKHAASTVQILGAEKALFRALKSRRDTPKYGLIYHASLVGQTSPKHKGKISRMLAAKTVLAIRYDAFGEDSSSAMGVENRAKLEARLRTLEDRGIRKISGTGKALAKTEKYEHKSEVKTYDPSGDSTLPTCSKKRKIEQVDKEDEITEKKAKKAKIKVKVEEEEEEKVAEEEETSVKKKKKRGKKKHIKEEPLSEEEPCTSTAIASPEKKKKKKKKRENED | 4 | – | – | –
EIF2A (protein, UniProt Q9BY44 1-585, looked up) Eukaryotic translation …: MAPSTPLLTVRGSEGLYMVNGPPHFTESTVFPRESGKNCKVCIFSKDGTLFAWGNGEKVNIISVTNKGLLHSFDLLKAVCLEFSPKNTVLATWQPYTTSKDGTAGIPNLQLYDVKTGTCLKSFIQKKMQNWCPSWSEDETLCARNVNNEVHFFENNNFNTIANKLHLQKINDFVLSPGPQPYKVAVYVPGSKGAPSFVRLYQYPNFAGPHAALANKSFFKADKVTMLWNKKATAVLVIASTDVDKTGASYYGEQTLHYIATNGESAVVQLPKNGPIYDVVWNSSSTEFCAVYGFMPAKATIFNLKCDPVFDFGTGPRNAAYYSPHGHILVLAGFGNLRGQMEVWDVKNYKLISKPVASDSTYFAWCPDGEHILTATCAPRLRVNNGYKIWHYTGSILHKYDVPSNAELWQVSWQPFLDGIFPAKTITYQAVPSEVPNEEPKVATAYRPPALRNKPITNSKLHEEEPPQNMKPQSGNDKPLSKTALKNQRKHEAKKAAKQEARSDKSPDLAPTPAPQSTPRNTVSQSISGDPEIDKKIKNLKKKLKAIEQLKEQAATGKQLEKNQLEKIQKETALLQELEDLELGI | 4 | 5 | 1 | –
NOP56 (protein, UniProt O00567 1-594, looked up) Nucleolar protein 56: MVLLHVLFEHAVGYALLALKEVEEISLLQPQVEESVLNLGKFHSIVRLVAFCPFASSQVALENANAVSEGVVHEDLRLLLETHLPSKKKKVLLGVGDPKIGAAIQEELGYNCQTGGVIAEILRGVRLHFHNLVKGLTDLSACKAQLGLGHSYSRAKVKFNVNRVDNMIIQSISLLDQLDKDINTFSMRVREWYGYHFPELVKIINDNATYCRLAQFIGNRRELNEDKLEKLEELTMDGAKAKAILDASRSSMGMDISAIDLINIESFSSRVVSLSEYRQSLHTYLRSKMSQVAPSLSALIGEAVGARLIAHAGSLTNLAKYPASTVQILGAEKALFRALKTRGNTPKYGLIFHSTFIGRAAAKNKGRISRYLANKCSIASRIDCFSEVPTSVFGEKLREQVEERLSFYETGEIPRKNLDVMKEAMVQAEEAAAEITRKLEKQEKKRLKKEKKRLAALALASSENSSSTPEECEEMSEKPKKKKKQKPQEVPQENGMEDPSISFSKPKKKKSFSKEELMSSDLEETAGSTSIPKRKKSTPKEETVNDPEEAGHRSGSKKKRKFSKEEPVSSGPEEAVGKSSSKKKKKFHKASQED | – | 5 | 1 | –
NFXL1 (protein, UniProt Q6ZNB6 1-911, looked up) NF-X1-type zinc finger …: MEASWRQVAGGRGRSRGRATAAPSGNGVHLRGAGGGREKGSVGAVPSGTSPGGVATTAAAGSRHSPAGSQALQTTAASELMSQKKFEEIKKANQAAARKLVEEQFSSSSEEGDEDFEGKQGKILANTFITYTTQTDGDTRELERTKQYVNEAFQAGAMTCLICIASVKRNQAVWSCSGCFCIFHMPCIQKWAKDSQFLVSSVTDDDFGKKDCPWPCPKCRFEYKRSETPSRYYCYCGKVEDPPLDPWLVPHSCGQVCEREFKPPCGHKCLLLCHPGPCPPCPKMVTTTCYCKKAKPIPRRCSAKEWSCQLPCGQKLLCGQHKCENPCHAGSCQPCPRVSRQKCVCGKKVAERSCASPLWHCDQVCGKTLPCGNHTCEQVCHVGACGECPRSGKRFCPCQKSKFSLPCTEDVPTCGDSCDKVLECGIHRCSQRCHRGPCETCRQEVEKHCRCGKHTKRMPCHKPYLCETKCVKMRDCQKHQCRRKCCPGNCPPCDQNCGRTLGCRNHKCPSVCHRGSCYPCPETVDVKCNCGNTKVTVPCGRERTTRPPKCKEQCSRPPTCHHTSQEKHRCHFGSCPPCHQPCQKVLEKCGHLCPAPCHDQALIKQTGRHQPTGPWEQPSEPAFIQTALPCPPCQVPIPMECLGKHEVSPLPCHAVGPYSCKRVCGRILDCQNHTCMKECHKVTKTDGCTGKNKAGPECLHCEEGCSKSRPLGCLHPCILRCHPGECPPCVQMLRIKCHCKITSLYVECRKITTADVNEKNLLSCCKNQCPKELPCGHRCKEMCHPGECPFNCNQKVKLRCPCKRIKKELQCNKVRENQVSIECDTTCKEMKRKASEIKEAEAKAALEEEKRRQQAELEAFENRLKGRRKKNRKRDEVAVELSLWQKHKYYLISVCGVVVVVFAWYITHDVN | – | 12 | 3 | –
TUBB (protein, UniProt P07437 1-444, looked up) Tubulin beta chain: MREIVHIQAGQCGNQIGAKFWEVISDEHGIDPTGTYHGDSDLQLDRISVYYNEATGGKYVPRAILVDLEPGTMDSVRSGPFGQIFRPDNFVFGQSGAGNNWAKGHYTEGAELVDSVLDVVRKEAESCDCLQGFQLTHSLGGGTGSGMGTLLISKIREEYPDRIMNTFSVVPSPKVSDTVVEPYNATLSVHQLVENTDETYCIDNEALYDICFRTLKLTTPTYGDLNHLVSATMSGVTTCLRFPGQLNADLRKLAVNMVPFPRLHFFMPGFAPLTSRGSQQYRALTVPELTQQVFDAKNMMAACDPRHGRYLTVAAVFRGRMSMKEVDEQMLNVQNKNSSYFVEWIPNNVKTAVCDIPPRGLKMAVTFIGNSTAIQELFKRISEQFTAMFRRKAFLHWYTGEGMDEMEFTEAESNMNDLVSEYQQYQDATAEEEEDFGEEAEEEA | – | – | – | target (unweighted spectral count) (OC43 Probe II, 12 hpi (type n_12_v), infected cells, tested against no-probe control): 11; target (unweighted spectral count, OC43 Probe II) (type n_36_v, 36 hpi): 11; background (unweighted spectral count, no-probe control) (type n_36_v, 36 hpi): 4
